Data set [1] deals with T1, human Notch2 NRR-Fc (Homo sapiens, UniProt Q04721).
T1 construct: Expression constructs encoding human Notch1 and Notch2 NRR regions, fused with human IgG1 Fc fragments; made in house; host or cells: CHO-PACE cells
T1 sequence (Q04721 1425-1677 limits assumed): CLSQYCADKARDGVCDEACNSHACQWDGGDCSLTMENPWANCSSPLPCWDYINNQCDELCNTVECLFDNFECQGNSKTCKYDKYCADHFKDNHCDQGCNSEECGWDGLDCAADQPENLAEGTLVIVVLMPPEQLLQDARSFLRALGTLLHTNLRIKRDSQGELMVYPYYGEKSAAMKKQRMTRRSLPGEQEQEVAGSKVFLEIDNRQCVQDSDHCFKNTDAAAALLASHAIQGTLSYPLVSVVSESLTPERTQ
As to the kind of experiment: Binding to Notch2 NRR-Fc. Particulars: N/B = non-binding. The text has this: (§1) Other members of the Notch receptor family play important roles in biological processes. For example, a Notch1 or Notch2 deficiency leads to embryonic death in mouse models. In contrast, a Notch4 deficiency results in no detectable phenotype in mouse models. The closest homologues of the Notch3 NRR region are Notch1 and Notch2 (˜50% homology), and Notch4 is a more distant homologue (˜30% homology). Cross-reactivity of anti-Notch3 antibodies to other members of the Notch family, especially Notch1 and 2, may lead to undesired effects in patients. Therefore, the potential cross-reactivity of r28 and hu28, along with r75 and hu75 to other Notch family members were assessed.
(§2) Expression constructs encoding human Notch1 and Notch2 NRR regions, fused with human IgG1 Fc fragments were stably introduced into CHO-PACE cells. Conditioned media from these cells expressing NRR-Fc fusions were collected. Human Notch2 NRR-Fc and human Notch1 NRR-Fc were purified by protein A affinity followed by size exclusion chromatography (SEC). Purified preparations were dialysed into TBS with 1 mM CaCl2 and analyzed on analytical SEC to be >99% in purity.

For data set [2], the target named is U2OS/hNotch3 (Homo sapiens, UniProt Q9UM47). Kind of data set: In vitro cytotoxicity (MTS), U2OS/hNotch3. In kind it is cell-based. Details: U-2 OS cells stably over-expressing human full length Notch3 protein on cell surface; expressed in transfected cells; host or cells: U-2 OS (human osteosarcoma). Particulars: Table 13; four days; LP = lacked potency. On the procedure:
(§3) The effects of anti-Notch3 ADCs were assessed on 1) cell lines endogenously expressing Notch3 protein: HCC2429 (lung cancer), OVCAR3 (ovarian cancer) and MDA-MB-468 (breast cancer), 2) cell lines engineered to over-express full length human Notch3 protein: MDA-MB-468/hNotch3 and U2OS/hNotch3, and 3) a negative control cell line (SW900) using an MTS cellular viability indicator (Promega, Madison, Wis.). These cell lines were cultured with increasing concentrations of anti-Notch3 ADCs comprising rat-human chimeric anti-Notch3 antibodies, ch28 and ch75, and humanized anti-Notch3 antibodies, hu28 and hu75, conjugated to various linker-payload combinations of the present invention. As a specificity control for the anti-Notch3-ADCs, non-targeted control-ADCs (huNeg8.8-ADCs or ch2H6-ADCs) were also tested on the same cell lines. After four days, viability of each culture was assessed. IC50 values were calculated by logistic non-linear regression, model #203 with XL fit v4.2 (IDBS, Guildford, Surry, UK) and presented as ng Ab/mL. The drug antibody ratio (DAR) is also provided.

Data set [3] deals with MDA-MB-468 (breast cancer). As to the kind of experiment: In vitro cytotoxicity (MTS), MDA-MB-468. The data set is classed as cell-based, human. As to conditions: Table 13; four days; LP = lacked potency. On the procedure:
as §3

Data set [4] relates to HCC2429 (lung cancer). Kind of data set: In vitro cytotoxicity (MTS), HCC2429. In kind it is cell-based, human. As to conditions: Table 13; four days; LP = lacked potency. The protocol:
as §3
(§4) This process generated the anti-Notch3 cysteine mutant ADCs: hu28-(L443C)-vc0101 and hu28-(L443C/κK183C)-vc0101. The activity of the anti-Notch3 cysteine mutant ADCs were assessed on cell lines endogenously expressing Notch3 protein: HCC2429 (lung cancer) and OVCAR3 (ovarian cancer) using an MTS cellular viability indicator as described in previous Examples.

Data set [5] deals with OVCAR3 (ovarian cancer). Kind of data set: In vitro cytotoxicity (MTS), OVCAR3. In kind it is cell-based, human. Particulars: Table 13; four days; LP = lacked potency. The protocol: as §3, §4
The test system of data set [6] is N87 gastric xenografts. As to the kind of experiment: N87 gastric xenograft model. The data set is classed as in vivo, mouse. As to conditions: 5 mg/kg iv Q4dx4; FIG. 16D, 16E. The protocol: Similar in vivo experiments were performed with the N87 gastric cancer cell line as described above. To generate xenografts, nude (Nu/Nu) female mice were implanted subcutaneously with 8×10^6 N87 cells in 50% Matrigel (BD Biosciences).
The N87 gastric model was also dosed intravenously Q4d×4 with PBS vehicle, rat-human chimeric anti-Notch3 ADCs and control huNeg-8.8 ADCs, at a dose of 5 mg/kg as provided in FIG. 16D.
The N87 gastric model was also dosed intravenously Q4d×4 with PBS vehicle and rat-human chimeric anti-Notch3 ADCs ch28-mc0131, ch75-mc0131, ch28-m(H2O)c-0131 and ch75-m(H2O)c-0131 at a dose of 5 mg/kg as provided in FIG. 16E.

Data set [7] concerns the target T2, MDA-MB-468/hNotch3 (Homo sapiens, UniProt Q9UM47).
T2 construct: cell lines engineered to over-express full length human Notch3 protein: MDA-MB-468/hNotch3 and U2OS/hNotch3; expressed in transfected cells; host or cells: MDA-MB-468
Kind of data set: In vitro cytotoxicity (MTS), MDA-MB-468/hNotch3. As to conditions: Table 13; four days; LP = lacked potency. In kind it is cell-based. On the procedure:
as §3

Data set [8] deals with T3, human Notch1 NRR-Fc (Homo sapiens, UniProt P46531).
T3 construct: Expression constructs encoding human Notch1 and Notch2 NRR regions, fused with human IgG1 Fc fragments; made in house; host or cells: CHO-PACE cells
T3 sequence (P46531 1446-1733 limits assumed): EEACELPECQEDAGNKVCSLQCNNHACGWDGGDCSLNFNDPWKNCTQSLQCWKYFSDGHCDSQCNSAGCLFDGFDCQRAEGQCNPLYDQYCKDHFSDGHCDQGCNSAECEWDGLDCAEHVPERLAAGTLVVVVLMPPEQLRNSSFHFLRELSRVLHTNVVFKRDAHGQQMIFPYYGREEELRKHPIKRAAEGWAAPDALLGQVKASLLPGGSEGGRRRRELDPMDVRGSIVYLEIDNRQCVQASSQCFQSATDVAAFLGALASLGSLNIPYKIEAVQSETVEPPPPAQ
Kind of data set: Binding to Notch1 NRR-Fc. Particulars: N/B = non-binding.
From the text: as §1, §2

For data set [9], the target named is T4, human Notch3 NRR recombinant protein (Homo sapiens, UniProt Q9UM47).
T4 construct: made in house
T4 sequence (Q9UM47 with tags, fused parts or gaps): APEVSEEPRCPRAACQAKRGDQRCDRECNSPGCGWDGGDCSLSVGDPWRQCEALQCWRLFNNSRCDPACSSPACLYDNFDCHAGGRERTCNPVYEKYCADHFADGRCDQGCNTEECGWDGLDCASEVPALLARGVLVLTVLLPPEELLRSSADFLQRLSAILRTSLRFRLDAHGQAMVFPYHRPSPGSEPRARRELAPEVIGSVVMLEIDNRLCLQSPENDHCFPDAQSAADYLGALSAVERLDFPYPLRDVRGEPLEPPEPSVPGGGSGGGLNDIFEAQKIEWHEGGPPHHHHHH
Kind of data set: Surface plasmon resonance (Biacore) kinetic analysis. As to conditions: antibody captured; 1:1 Langmuir model. The data set is classed as binding. On the procedure: The kinetic constants of the anti-Notch3 NRR interactions were determined by surface plasmon resonance (Biacore® T100, Biacore Inc., Piscataway, N.J.). Flow cells of a CM5 chip were immobilized with approximately 10,000 response units (RU) of anti-human IgG-Fc (Biacore®) in 10 mM Glycine, pH 5.0 at 10 μl/min for 600 seconds. 10 μg/ml of anti-Notch3 antibodies ch28 and hu28, and ch75 and hu75 were diluted in TBS with 1 mM CaCl2 were captured at 10 μl/min. Association of four concentrations of human Notch3 NRR recombinant protein (from 3.7-100 nM) and a zero concentration (running buffer) at 100 μl/min were recorded for 3 minutes in TBS with 1 mM CaCl2. Dissociation of the complexes was measured for 10 minutes. The surface of the chip was regenerated by injecting 3M MgCl2 with 3 mM EGTA for 60 seconds at 10 μl/min. Curves obtained after subtraction of the reference and buffer signals were fitted to a 1:1 Langmuir binding model with Biacore® T100 Evaluation Software (Biacore®).
On the technique in general: In SPR one partner is held on a chip, and binding of the other changes the refractive index at the surface.

Data set [10] can be described thus: Thermal stability by differential scanning calorimetry (DSC). The data set is classed as physicochemical. As to conditions: 0.3 mg/ml in PBS. The protocol:
There is a positive correlation between the thermal stability of a protein or protein domain with the overall stability of the protein or protein domain. A higher melting point of a protein or protein domain often provides improved manufacturability and longer shelf life. Differential scanning calorimetry (DSC) was used to assess the thermal stability of hu28 and hu75 versus ch28 and ch75, respectively. Protein samples were diluted in PBS to 0.3 mg/ml in a volume of 250 μl. The corresponding formulation buffer blank was used for the reference sample. Both samples were thoroughly degassed using a MicroCal ThermoVac Sample Degassing and Thermostat (Microcal, Inc., Northampton, Mass.) set to 8° C. Samples were dispensed into the appropriate cells of a MicroCal VP-DSC Capillary Cell MicroCalorimter (MicroCal, Inc., Northampton, Mass.). Samples were equilibrated for 4 minutes at 15° C. and then scanned up to 100° C. at a rate of 100° C. per hour. A filtering period of 20 seconds was selected. Raw data was baseline corrected and the protein concentration was normalized. Origin Software (OriginLab Corporation, Northampton, Mass.) was used to fit the data to an MN2-State Model with an appropriate number of transitions.
(In general: DSC measures the heat that a sample takes up or gives off during a temperature scan.)

T2 sequence (Q9UM47 40-2321): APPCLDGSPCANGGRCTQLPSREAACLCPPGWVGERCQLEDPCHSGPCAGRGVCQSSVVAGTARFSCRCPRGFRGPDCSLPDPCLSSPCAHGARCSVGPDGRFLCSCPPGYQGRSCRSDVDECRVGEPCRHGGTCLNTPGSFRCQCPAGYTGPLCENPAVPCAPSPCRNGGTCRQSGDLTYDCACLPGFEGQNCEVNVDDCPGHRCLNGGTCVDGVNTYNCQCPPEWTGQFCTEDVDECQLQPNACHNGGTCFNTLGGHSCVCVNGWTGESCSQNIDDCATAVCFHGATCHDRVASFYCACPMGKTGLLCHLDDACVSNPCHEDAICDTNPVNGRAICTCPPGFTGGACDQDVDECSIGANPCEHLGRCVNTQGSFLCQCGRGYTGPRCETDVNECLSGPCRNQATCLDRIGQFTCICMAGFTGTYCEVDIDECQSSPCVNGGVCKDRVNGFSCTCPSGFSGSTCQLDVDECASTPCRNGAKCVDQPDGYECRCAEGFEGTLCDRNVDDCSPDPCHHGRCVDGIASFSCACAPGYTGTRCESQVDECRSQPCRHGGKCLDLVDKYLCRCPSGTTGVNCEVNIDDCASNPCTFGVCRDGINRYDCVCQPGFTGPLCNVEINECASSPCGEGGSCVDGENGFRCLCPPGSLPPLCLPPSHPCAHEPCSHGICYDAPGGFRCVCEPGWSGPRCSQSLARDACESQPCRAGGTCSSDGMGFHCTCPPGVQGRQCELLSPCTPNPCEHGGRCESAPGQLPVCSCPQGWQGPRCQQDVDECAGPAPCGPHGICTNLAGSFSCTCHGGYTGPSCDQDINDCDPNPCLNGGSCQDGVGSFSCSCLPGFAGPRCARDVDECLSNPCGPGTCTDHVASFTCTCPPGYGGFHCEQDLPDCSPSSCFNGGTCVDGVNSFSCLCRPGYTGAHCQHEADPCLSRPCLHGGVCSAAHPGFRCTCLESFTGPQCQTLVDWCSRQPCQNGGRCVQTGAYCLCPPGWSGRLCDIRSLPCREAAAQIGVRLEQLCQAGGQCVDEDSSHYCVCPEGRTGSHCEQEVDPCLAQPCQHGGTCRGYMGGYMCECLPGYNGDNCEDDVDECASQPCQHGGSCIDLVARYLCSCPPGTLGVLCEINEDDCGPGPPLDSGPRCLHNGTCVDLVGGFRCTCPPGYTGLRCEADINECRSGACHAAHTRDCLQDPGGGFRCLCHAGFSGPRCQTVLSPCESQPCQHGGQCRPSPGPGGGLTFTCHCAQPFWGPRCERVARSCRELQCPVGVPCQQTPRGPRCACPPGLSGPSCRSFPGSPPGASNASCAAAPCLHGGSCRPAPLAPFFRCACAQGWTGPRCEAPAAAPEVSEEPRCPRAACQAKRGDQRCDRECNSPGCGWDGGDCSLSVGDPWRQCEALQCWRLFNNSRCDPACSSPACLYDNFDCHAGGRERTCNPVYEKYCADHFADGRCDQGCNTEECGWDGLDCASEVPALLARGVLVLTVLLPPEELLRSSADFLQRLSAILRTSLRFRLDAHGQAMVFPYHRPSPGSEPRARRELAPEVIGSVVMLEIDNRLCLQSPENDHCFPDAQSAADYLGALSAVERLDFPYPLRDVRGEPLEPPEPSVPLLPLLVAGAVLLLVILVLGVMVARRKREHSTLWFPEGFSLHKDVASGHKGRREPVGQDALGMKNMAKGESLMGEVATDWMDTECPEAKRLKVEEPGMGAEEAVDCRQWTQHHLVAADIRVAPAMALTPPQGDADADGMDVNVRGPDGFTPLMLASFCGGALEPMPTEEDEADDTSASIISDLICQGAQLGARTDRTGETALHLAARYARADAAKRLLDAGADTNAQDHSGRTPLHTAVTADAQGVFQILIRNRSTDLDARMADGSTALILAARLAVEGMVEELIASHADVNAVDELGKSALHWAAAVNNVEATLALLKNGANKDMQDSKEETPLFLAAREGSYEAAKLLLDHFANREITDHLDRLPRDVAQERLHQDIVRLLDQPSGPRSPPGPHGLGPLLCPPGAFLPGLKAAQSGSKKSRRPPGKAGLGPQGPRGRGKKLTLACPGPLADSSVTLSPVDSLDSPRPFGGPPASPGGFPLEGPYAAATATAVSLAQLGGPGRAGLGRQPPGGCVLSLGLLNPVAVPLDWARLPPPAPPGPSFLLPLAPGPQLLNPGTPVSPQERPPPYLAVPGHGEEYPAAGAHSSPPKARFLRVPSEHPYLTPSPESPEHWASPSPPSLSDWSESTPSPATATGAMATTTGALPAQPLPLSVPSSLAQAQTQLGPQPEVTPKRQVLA
U2OS/hNotch3, sequence (Q9UM47 40-2321): as above

B1: r75: parental rat anti-Notch3 antibody clone 75 (VH SEQ ID NO: 9, VL SEQ ID NO: 11) (antibody, V domains shown)
VH: QVKLLQSGAALVKPGASVKMSCKASGYAFTDYWVTWVKQSHGKSLEWIGEISPNSGGTNFNEKFKGKATLTVDKSTSTAYMELSRLTSEDSAIYYCTRGEIRYNWFAYWGQGTLVTVSS
VL: DIQMTQSPSSLSASVGDRVTITCKASQNVGNNIAWYQQKPGKAPKLLIYYASNRYTGVPSRFSGSGYGTDFTLTISSLQPEDFATYYCQRLYNSPFTFGGGTKVEIK
Turning to B1, the “Binding to Notch2 NRR-Fc” value in data set [1] is reported as “lacked detectable binding”.

B2: ch75-mc0131 (conjugate)
VH: B1 VH
VL: B1 VL
As to B2, the “IC50 (ng Ab/mL) ± S.E.M., U2OS/hNotch3” value in data set [2] worked out at 19 ng Ab/mL. For the same molecule, in data set [3], the “IC50 (ng Ab/mL) ± S.E.M., MDA-MB-468” value is 8202 ± 2773.0 ng Ab/mL. The “IC50 (ng Ab/mL) ± S.E.M., HCC2429” value in [4] was 671 ± 406.5 ng Ab/mL. For the same molecule, the “IC50 (ng Ab/mL) ± S.E.M., OVCAR3” value in [5] is 289 ng Ab/mL. In data set [6], the “growth of N87 gastric xenografts” value is recorded as “inhibited growth of N87 gastric xenografts”.

B3: ch75-vc0101: ch75 conjugated to vc0101 linker-payload (conjugate)
VH: B1 VH
VL: B1 VL
B3: the “IC50 (ng Ab/mL) ± S.E.M., MDA-MB-468/hNotch3” value in data set [7] is 24 ± 4.0 ng Ab/mL. Besides, in data set [3], the “IC50 (ng Ab/mL) ± S.E.M., MDA-MB-468” value turned out to be 4064 ± 1793.9 ng Ab/mL. In addition, the “IC50 (ng Ab/mL) ± S.E.M., HCC2429” value in [4] worked out at 2112 ± 826.0 ng Ab/mL.

B4: ch75-vc6780 (conjugate)
VH: B1 VH
VL: B1 VL
Take B4: in [7], the “IC50 (ng Ab/mL) ± S.E.M., MDA-MB-468/hNotch3” value is reported as 21 ± 3.5 ng Ab/mL. In data set [3], the “IC50 (ng Ab/mL) ± S.E.M., MDA-MB-468” value came to 6873 ± 4230.0 ng Ab/mL. For the same molecule, the “IC50 (ng Ab/mL) ± S.E.M., HCC2429” value in [4] is 1004 ± 177.0 ng Ab/mL. In addition, the “IC50 (ng Ab/mL) ± S.E.M., OVCAR3” value in [5] is reported as 922 ng Ab/mL.

B5: r28: parental rat anti-Notch3 antibody clone 28 (VH SEQ ID NO: 5, VL SEQ ID NO: 7) (antibody, V domains shown)
VH: EVQLVESGGGLVQPGRSLTLSCVASGFTFRDYGMTWIRQAPGKGLTWVAYISSGSNYIYYAEAVKGRFTISRDNAKNTLYLQMTSLRSEDTALYFCTRRGPFVLDAWGQGASVTVSS
VL: DIQMTQSPSFLSASVGDRVTINCKASQSINRYLHWFQQKLGEAPKLLIYNANGLQTGIPSRFSGSGSGTDFTLTISSLQSEDVATYFCLQHNTWPDTFGAGTKLELK
As to B5, in data set [1], the “Binding to Notch2 NRR-Fc” value was “lacked detectable binding”.

B6: ch28: rat-human chimeric anti-Notch3 antibody 28, rat variable regions fused with human IgG1 and human kappa (antibody, V domains shown)
VH: B5 VH
VL: B5 VL
As to B6, in data set [8], the “Binding to Notch1 NRR-Fc” value is reported as “N/B”. Further, in data set [9], the ka was 409000 M⁻¹ s⁻¹ and the kd was determined as 0.000249 s⁻¹. Also, the “Binding to Notch2 NRR-Fc” value in data set [1] is on record as “N/B”. For the same molecule, in data set [10], the “Tm ± Standard Deviation, CH2” value was 70.20 ± 0.05 °C; the “Tm ± Standard Deviation, CH3” value came to 84.24 ± 0.07 °C; the “Tm ± Standard Deviation, Fab” value came to 73.22 ± 0.73 °C.

These data come from patent publication US9433687B2, “Anti-Notch3 antibodies and antibody-drug conjugates” (Pfizer Inc., priority 2012, dated 2016).
